Source: IntAct's records for PubMed 31515488

What was measured:
[1] = biological target: vps29_human VPS29 (UniProt Q9UBQ0)
[2] = biological target: mlh1_human MLH1 (UniProt P40692)
[3] = biological target: nmna1_human NMNAT1 (UniProt Q9HAN9)
[4] = biological target: T1, magd1_human MAGED1 (UniProt Q9Y5V3)
T1 sequence: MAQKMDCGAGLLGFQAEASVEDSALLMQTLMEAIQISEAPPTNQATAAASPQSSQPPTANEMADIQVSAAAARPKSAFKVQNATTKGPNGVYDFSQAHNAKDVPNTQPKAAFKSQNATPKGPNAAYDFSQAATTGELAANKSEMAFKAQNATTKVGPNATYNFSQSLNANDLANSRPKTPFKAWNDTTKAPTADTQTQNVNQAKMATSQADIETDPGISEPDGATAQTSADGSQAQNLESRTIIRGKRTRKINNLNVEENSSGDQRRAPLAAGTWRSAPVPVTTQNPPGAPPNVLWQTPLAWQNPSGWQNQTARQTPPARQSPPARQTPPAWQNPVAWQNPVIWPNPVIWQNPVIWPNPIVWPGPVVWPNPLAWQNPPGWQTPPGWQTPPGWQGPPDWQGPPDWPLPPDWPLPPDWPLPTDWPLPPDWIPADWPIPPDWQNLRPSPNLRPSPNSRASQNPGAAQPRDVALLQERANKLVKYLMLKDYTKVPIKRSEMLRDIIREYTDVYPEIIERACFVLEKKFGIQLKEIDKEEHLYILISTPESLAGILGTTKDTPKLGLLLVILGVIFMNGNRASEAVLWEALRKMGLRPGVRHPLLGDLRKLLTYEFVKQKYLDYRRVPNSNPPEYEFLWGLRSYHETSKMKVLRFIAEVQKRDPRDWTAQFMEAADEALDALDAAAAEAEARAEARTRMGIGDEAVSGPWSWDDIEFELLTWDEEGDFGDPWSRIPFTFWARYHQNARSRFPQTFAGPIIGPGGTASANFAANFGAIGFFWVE

[5] = biological target: T2, srtd3_human SERTAD3 (UniProt Q9UJW9)
T2 sequence: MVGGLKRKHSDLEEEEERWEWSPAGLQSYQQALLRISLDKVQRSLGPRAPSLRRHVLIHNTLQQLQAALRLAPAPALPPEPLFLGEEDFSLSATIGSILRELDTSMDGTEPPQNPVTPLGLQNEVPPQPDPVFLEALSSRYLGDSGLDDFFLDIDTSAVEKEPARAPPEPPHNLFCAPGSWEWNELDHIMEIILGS

[6] = biological target: T3, neca2_human NECAB2 (UniProt Q7Z6G3)
T3 sequence: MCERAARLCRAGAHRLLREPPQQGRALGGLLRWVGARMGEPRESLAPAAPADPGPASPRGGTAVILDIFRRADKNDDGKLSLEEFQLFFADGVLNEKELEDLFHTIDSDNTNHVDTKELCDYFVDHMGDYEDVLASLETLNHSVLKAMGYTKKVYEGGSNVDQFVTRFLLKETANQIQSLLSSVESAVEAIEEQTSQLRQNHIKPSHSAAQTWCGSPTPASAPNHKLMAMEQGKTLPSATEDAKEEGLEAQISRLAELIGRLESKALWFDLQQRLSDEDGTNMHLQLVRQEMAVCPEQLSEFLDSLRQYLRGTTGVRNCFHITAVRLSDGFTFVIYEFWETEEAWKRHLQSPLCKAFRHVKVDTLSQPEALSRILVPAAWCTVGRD

[7] = biological target: traf1_human TRAF1 (UniProt Q13077)
[8] = biological target: tcl1a_human TCL1A (UniProt P56279)
[9] = biological target: itf2_human TCF4 (UniProt P15884)
[10] = biological target: inca1_human INCA1 (UniProt Q0VD86)
[11] = biological target: cep76_human CEP76 (UniProt Q8TAP6)

Substance: Vacuolar protein sorting-associated protein 35 (Homo sapiens) (from UniProt Q96QK1) L227F
- effect of a mutation on the interaction [1]: with no effect

Substance: Importin subunit alpha-1 (Homo sapiens) (from UniProt P52292) P216S
- effect of a mutation on the interaction [2]: with no effect
- effect of a mutation on the interaction [3]: with no effect
- effect of a mutation on the interaction [4]: with no effect
- effect of a mutation on the interaction [5]: with no effect
- effect of a mutation on the interaction [6]: with no effect

Substance: Importin subunit alpha-1 (Homo sapiens) (from UniProt P52292) N86S
- effect of a mutation on the interaction [2]: with no effect
- effect of a mutation on the interaction [3]: with no effect
- effect of a mutation on the interaction [4]: with no effect
- effect of a mutation on the interaction [5]: with no effect
- effect of a mutation on the interaction [6]: with no effect

Substance: Zinc finger protein 502 (Homo sapiens), Q8TBZ5 E243A
- effect of a mutation on the interaction [7]: with no effect

Substance: "DNA (cytosine-5)-methyltransferase 3A" (Homo sapiens) (from UniProt Q9Y6K1) E30A
- effect of a mutation on the interaction [8]: with no effect

Substance: "DNA (cytosine-5)-methyltransferase 3A" (Homo sapiens) (from UniProt Q9Y6K1) P904L
- effect of a mutation on the interaction [8]: disrupting interaction strength

Substance: Importin subunit alpha-1 (Homo sapiens) (from UniProt P52292) R117W
- effect of a mutation on the interaction [2]: with no effect
- effect of a mutation on the interaction [3]: with no effect
- effect of a mutation on the interaction [4]: with no effect
- effect of a mutation on the interaction [5]: with no effect
- effect of a mutation on the interaction [6]: with no effect

Substance: Calcium-binding protein 5 (Homo sapiens), Q9NP86 V128A
- effect of a mutation on the interaction [9]: with no effect
- effect of a mutation on the interaction [10]: with no effect
- effect of a mutation on the interaction [11]: with no effect

Substance: Calcium-binding protein 5 (Homo sapiens), Q9NP86 R44Q
- effect of a mutation on the interaction [9]: with no effect
- effect of a mutation on the interaction [10]: with no effect
- effect of a mutation on the interaction [11]: with no effect

Substance: Importin subunit alpha-1 (Homo sapiens) (from UniProt P52292) V506I
- effect of a mutation on the interaction [3]: with no effect
- effect of a mutation on the interaction [4]: with no effect
- effect of a mutation on the interaction [5]: with no effect
- effect of a mutation on the interaction [6]: with no effect

Substance: Calcium-binding protein 5 (Homo sapiens), Q9NP86 G73S
- effect of a mutation on the interaction [9]: with no effect
- effect of a mutation on the interaction [10]: with no effect
- effect of a mutation on the interaction [11]: with no effect

Substance: "DNA (cytosine-5)-methyltransferase 3A" (Homo sapiens) (from UniProt Q9Y6K1) N501S
- effect of a mutation on the interaction [8]: with no effect

Substance: Calcium-binding protein 5 (Homo sapiens), Q9NP86 T65R
- effect of a mutation on the interaction [9]: disrupting interaction strength
- effect of a mutation on the interaction [10]: with no effect
- effect of a mutation on the interaction [11]: with no effect

Substance: Importin subunit alpha-1 (Homo sapiens) (from UniProt P52292) V506D
- effect of a mutation on the interaction [3]: with no effect
- effect of a mutation on the interaction [4]: with no effect
- effect of a mutation on the interaction [5]: with no effect
- effect of a mutation on the interaction [6]: with no effect

Substance: Vacuolar protein sorting-associated protein 35 (Homo sapiens) (from UniProt Q96QK1) D620N
- effect of a mutation on the interaction [1]: with no effect

Substance: Zinc finger protein 502 (Homo sapiens), Q8TBZ5 Q174R
- effect of a mutation on the interaction [7]: with no effect

Substance: "DNA (cytosine-5)-methyltransferase 3A" (Homo sapiens) (from UniProt Q9Y6K1) V372I
- effect of a mutation on the interaction [8]: with no effect

Substance: Importin subunit alpha-1 (Homo sapiens) (from UniProt P52292) R117Q
- effect of a mutation on the interaction [2]: with no effect
- effect of a mutation on the interaction [3]: with no effect
- effect of a mutation on the interaction [4]: with no effect
- effect of a mutation on the interaction [5]: with no effect
- effect of a mutation on the interaction [6]: with no effect

Substance: Vacuolar protein sorting-associated protein 35 (Homo sapiens) (from UniProt Q96QK1) R524W
- effect of a mutation on the interaction [1]: with no effect

Substance: Zinc finger protein 502 (Homo sapiens), Q8TBZ5 T184A
- effect of a mutation on the interaction [7]: with no effect
